Results on one molecule are retold here after patent US7122633 (Pfizer, dated 2006).

For this experiment, the target named is T1, NKSF larger subunit, 40 kD (human, UniProt P29460 23-328).
T1 construct: also called 40 kD subunit; NKSF heavy chain
T1 sequence: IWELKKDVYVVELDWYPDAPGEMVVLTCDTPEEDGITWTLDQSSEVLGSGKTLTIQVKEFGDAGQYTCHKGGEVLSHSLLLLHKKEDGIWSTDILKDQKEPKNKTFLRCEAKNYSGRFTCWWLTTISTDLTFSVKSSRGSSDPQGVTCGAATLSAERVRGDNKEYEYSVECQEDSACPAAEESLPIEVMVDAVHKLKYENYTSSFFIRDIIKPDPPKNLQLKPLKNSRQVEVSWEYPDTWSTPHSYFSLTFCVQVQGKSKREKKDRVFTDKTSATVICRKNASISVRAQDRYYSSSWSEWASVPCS
In words: SDS-PAGE of the iodinated 70 kD species, non-reduced against reduced with β-mercaptoethanol. Here is the method: SDS-PAGE was performed according to the method of Laemmli [Laemmli, U. K., *Nature*, 227:680–685 (1970)] on 10% acrylamide slab gels (0.75 mm thickness). After electrophoresis the gels were either stained by the silver-nitrate method using a silver staining reagents [BioRad] or cut into 2 mm slices and eluted in 0.5 ml RPMI medium for 4 hours at 24° C. and assayed for NKSF activity. Apparent molecular weight was determined with protein standards, […] (94 kD), bovine serum albumin (67 kD), ovalbumin (43 kD), carbonic anhydrase (30 kD), soybean trypsin inhibitor (20 kD) and lactalbumin (14.4 kD).
The 70 kD species was eluted from the gel, iodinated using chloramine T [Sigma, St. Louis, Mo.] and rerun on a second SDS gel after boiling for two minutes in the presence of the reducing agent, β-mercaptoethanol (10%). […] Alternatively, NKSF may be a dimer formed by multiples of the larger or smaller subunits. The reduction of the native 70 kD NKSF appeared to destroy all of its ability to induce peripheral blood lymphocyte production of gamma interferon.

B1: NKSF smaller subunit, 30-35 kD (other)
chain: RNLPVATPDPGMFPCLHHSQNLLRAVSNMLQKARQTLEFYPCTSEEIDHEDITKDKTSTVEACLPLELTKNESCLNSRETSFITNGSCLASRKTSFMMALCLSSIYEDLKMYQVEFKTMNAKLLMDPKRQIFLDQNMLAVIDELMQALNFNSETVPQKSSLEEPDFYKTKIKLCILLHAFRIRAVTIDRVMSYLNAS
notes: also called 30 kD subunit; 30 kD (smaller version)
Regarding B1, the binding result is “binds”.
